The values that follow come from the nanobody polyreactivity screen of Harvey et al. (2022).

A short description of the data set: yeast display, Sf9 membrane polyspecificity reagent, FACS + sequencing; frameworks hold sequencing errors. The method, boiled down: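 Using colony PCR, genes from sorted yeast display clones were amplified, then sequenced on MiSeq at 2 × 250 and filtered by CDR length. The clones had been stained with 10% biotinylated, detergent-solubilized Sf9 membrane reagent for 1 hour at 4 °C and sorted by FACS into low and high (top ~1%) gates on anti-HA and streptavidin fluorescence. Polyreactivity labels come from the gate of origin.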
With “QVQLVESGGGLVQAGGSLRLSCASYGRIIGIYAMGWSRPAHGKERELVATITDSDDSTYYADSVKGRFTISRDNAKNTVYLQMNSLKPEDTAVYFCATAFSYGGGAYDYWGHGTQVTVSS”, the “polyreactivity (PSR sort gate)” value is on record as “low polyreactivity”.

Regarding “QVQLVESGGGLVQAGGSLRLSCAASGSIFGYYAMGWSRQAPGKERELVAAISKSGGRTYYADSVKGRFTISRDNAKNTVYLQMNSLKPEDTAVYYCAAVLWYDIYYGGDYWGQGTQVTVSS”, the “polyreactivity (PSR sort gate)” value was “high polyreactivity”.

Consider “QVQLVESGGGLDQAGGSLRLSCAASGSIFAPNAMGWYRQAPGKERELVAAITSSGGRTYYADSVKGRFTISRDNAKNTVYLQMNSLKPEDTAVYYCNACYYVRRDYDYWGQGTQVTVSS”, for which the “polyreactivity (PSR sort gate)” value was “low polyreactivity”.

Turning to “QVQLVESGGGLDQAGGRLRLSCAASGRTFVYYAMGWYRQAPGKERELVATITRGGRTNYADSVKGRFTISRDNAKNTVYLQMNSLKPEDTAVYYCNARYSWWRSRVGSSHRPDGYWGQGTQVTVSS”, the “polyreactivity (PSR sort gate)” value is on record as “high polyreactivity”. In the case of “QVQLVESGGGLVQAGGSLRLSCAASGSTFIGNAMGWYRQAPGKERELVAAITSSGGSTYYADSVKGRFTISRDNAKNTVYLQLNSLKPEDTAVYYCAAKTWARGHYGYQARSNYWGQGTQVTVSS” it was “high polyreactivity”; in that of “QVQLVESGGGLVQAGGSLRLSCPASGSTFVLNAMGWYSQAPGKERELVAAITGSGSTNYADSVKGRFTISRDNAKNTVYLQMNRLKPEDTAVYYCATAAVYPIPFGYWGQGTQVTVSS”, “low polyreactivity”. To “QVQLVESGGGLVQAGGSLRLSCAASGSTFPLYAMGWYRQAPGKERELVAAITTGGGNTYYADSVKGRFTISRDNAKNTVYLQLNSLTPEDTAVYYCAKPYHIGLSGRRTYDYWGQGTQVTVSS” belongs “high polyreactivity”; to “QVQLVESGGGLVQAGGSLRLSCAASGFTFRTYAMGWYRQAPGKEREFVAAITTSGGSTYYADSVKGRFTISRDNAKNTVYLQMNSLKPEDTAVYYCAAKKATVVYRMEYWGQGTQVTVSS”, “high polyreactivity”. To “QVQLVESGGCLVQAGGSLRLSCAASGCTFVSNAMGWSRQAPGKERELVAAINGSGGITYYADSVKGRFTISRDNAKNTVYFQMNSLKPEDTAVYYCAAEVLYWRGYYNYWGQGTQVTVSS” belongs “low polyreactivity”; to “QVQLVESGGGLDQAGGSLRLSCAASGSTLVYNDMGWYRQAPGIEREFVAAIRSNDGSTYYADSVKGRFTISGDNAKNTVYLQMNSLKPEDTAGYYCAVVYGYPYLRGYVYGFNYWGQGTQVTVSS”, “low polyreactivity”; to “QVQLVESGGGLVQAGGSLRLSCAASGFIFVSYSLGWYRQAPGKERELVAAIDRIGGITYYADSVKGRFTISRDNSKNTVYLQMNSLKPEDTAVYYCAAAASYATVRVGREYYWGQGTHVTVSS”, “low polyreactivity”. “QDQLVESGGGLVQAGCSLRLSCAASGRTFKDYAMGWYRQAPGKERELVAAITYRDRTYYADSVKGRFTISRDNAKNTVYLQMNSLNTEDTAVYYCNAEGFSGMDYWGKGTQVTVSS”: the “polyreactivity (PSR sort gate)” value was “low polyreactivity”. To “QVQLVESGGGLVQAGGSLRLSCAASGSIFYTYAMGWYRQAPGKERELVAAISSGGSTNYADSVKGRFTISRDNPKNTVYLQMNSLKPEDTAVYYCAAEYTRSFYIYYRFGYWGQGTQVTVSS” belongs “high polyreactivity”; to “QVQLVESGGGLVQAGGSLRLSCAASGFIWSYVMGWYRQAPGKESQLVAAISRSCGRTYYADSVKGRFTISRDNAKNTVYLQMNSLKPEDTAVYYCAKDGGWSRLHYNYWGQGNQVTVSS”, “high polyreactivity”; to “QVQLVESGGGLVQAGGSLRLSCAASGIILYGYAMGWYRQAPGKARELVAALTWSGGSTYYADSVKGRFTISRDNAKNTVYLQMNSLKPEDTAVYYCAVDVHTSADASLPQEYDYWGQGTQVTVSS”, “low polyreactivity”. To “QVQLVESGGGLVQAGGSLRLSCAASGFTFNRYAMGWYRQAPGKERELVATITSGGNTYYADSVKGRFTISRDNAKNTVYLQMNSLKPEDTAVYYCNKRGWYSVYRRDYWGQGTQVTVSS” belongs “high polyreactivity”; to “QVQLVESGGGLVQAGCSLRLSCAASGRIFVEYAMGWYRQAPGKVTELVAAINSGGSTNYADSVKGRFTISRDNAKNTVYLQMNSLKPEDTAVYYCNIDTLVYGYVQDYEYWGQGSQVTVSS”, “low polyreactivity”.

Take “QVQLVESGGGLVQAGGSLRLSCAASGRIFRDNAMGWYRQAPGKERELVAAITSSGGSTNYADSVKGRFTISRDNAKNTVYLQMNSLKPEDTAVYYCNTDRLGAARYDYWGQGTQVTVSS”: the “polyreactivity (PSR sort gate)” value was “low polyreactivity”. To “QVQLVESGGGLVQAGGSLRLSCAASGRIFASYAMGWYRQAPGKERELVAAIDRTDSTYYADSVKGRFTISRDNAKNTVYLQMNSLKPEDTAVYYCAADEYYTFSSFELRRMDYWGQGTQVTVSS” belongs “low polyreactivity”; to “QDQLVESGGGLVQAGGSLRLSCAASGFIIQCNAMGWYRQAPGKERELVAAISSSVSTYYADSVKGRFTISRDNAKNTVYLQMNSLKPEDTAVYYCNAGFPLSLWLGDYWGQGTQVTVSS”, “low polyreactivity”. To “QVQLVESGGGLVQAGGSLRLICAASGSTFVLYAMGWYRQAPGKERELVAAITKRGGNTYYADSVKGRFTISRDNAKNTVYLQMNSLKPEDTAVYYCAADHVRSPFDSWGQGTQVTVSS” belongs “low polyreactivity”; to “QVQLVESGGGLVQAGGSLRLSCAASGFTFRVYVMGWYREAPGKERELVAGITRTGRTYYADSVKGRFTISRDNAKNTVYLQMNSLKPEDTAVYYCAATRPYSHRDYYYWGQGTQVTVSS”, “high polyreactivity”.

Turning to “QVQLVESGGGLVQAGGSLRLSCAASGSTFVYYAMGWYRQAPGKERELVAAISSGGNTKYADSVKGRFTISRDNAKNTVYLQMNSLKPEDTAVYYCARESQSYYDHDYWGQGTQVTVSS”, the “polyreactivity (PSR sort gate)” value is recorded as “low polyreactivity”. To “QVQLVESGGGLVQAGVSLRLSCAAYGFTFTGYAMGWYRQAPGKEMEFVAAITTGGGSTYYADSVKGRFTISRDNAKNTVYFQMNSLKPEDTAVYYCAKSRQYIGGFDYWGQGTQVTVSS” belongs “high polyreactivity”; to “QVQLVESGGGLVQAGGSLRLSCAASGRIFRYNAMGLYRQAPGKERELVAAISRSGGSTYYADSVKGRFTISRDNAKNTVYLQMNSLKPEDTAVYYCAVRRDGSGGNLDYWGQGTQVTVSS”, “high polyreactivity”; to “QVQLVESGGGLVQAGGSLRLSCAASGFTSGNYAMGWYRQAPGKERELVAAIDSDGSTYYADSVKGRFTISRDNAKNTVYLQMKSLKPEDTAVYYCNKDIKSATDSYHYEDDYWGQGTQVTVSS”, “low polyreactivity”. To “QVQLEESGGGLVQAGGSLRLTCAASGFIFQYYTMGWYRQAPGKERELVASITGTGGSTYYADSVKGRFTISRDNAKNTVYLQMNSLKPEDTAVYYCAAREGWGYEYDYWGQGTQVTVSS” belongs “high polyreactivity”; to “QVQLVESAGGLVQAGGSLRLSCAASGIIFPAYAMGWYRQAPGKERELVAGISGRGGSTYYADSVKGRFTISRDNAKNTVYLQMNSLKPEDTAVYYCAAYAGGPYKFDYWGQGTQVTVSS”, “high polyreactivity”; to “QVQLEESGGGLVQAGGSLRLTCAASGFIFKSYTMGWYRQATGKEMELVAAITSTGGGTYYADSVKGRFTISRDNAKNTVYLQMNSLKPEDTAVYYCNARTYVTVDYDFWGQGTQVTVSS”, “high polyreactivity”. To “QVQLVESGGGLVQAGGSLRLSCADSGLIFGYYAMGGYRQAPGKERELVAAITSSGTSTYYADSVKGRFTISRDNAKNTVYLQMNSLKPEDTAVYYCAAQYIGKKRFNYWGQGTQVTVSS” belongs “high polyreactivity”.
